Experimental findings from patent US20260028421A1 (JIANGSU HENGRUI PHARMACEUTICALS, published 2026) are described below.

One test concerns the target hTSLP (human, UniProt Q969D9 29-159). The test is described as follows: ELISA. On the technique in general: In an ELISA, binding on a coated surface is turned into a signal by an enzyme label.
A further test addresses hIL5 (human, UniProt P05113 20-134). The test is described as follows: ELISA.

B1: HJ-7 (bispecific antibody)
chain 1: not shown
chain 2: DIQMTQSPSSVSASVGDRVTITCRASQDIANYLSWYQQKPGKSPKLLIYGTSNLEVGVPSRFSGSRSGTDFTLTISSLQPEDFATYYCLQDKEFPRTFGGGTKVEIKGGGGSSGAPRFLTRPKASVVSVGKDATLSCQIVGNPFPQVSWEKDKQPVTAGVRFRLAQDGDLYRLKILDLQLSDSGQYVCRARNAHGEAFACLGLQVDAEA
chain 3: EVQLVQSGAEVKKPGSSVKVSCKASGYTFSNYLIEWVRQAPGQGLEWIGVIDPGVGDTNYNENFKGRATLTADKSTSTAYIELSSLRSEDTAVYYCAREDNTGTAFDYWGQGTTVTVSSASTKGPSVFPLAPSSKSTSGGTAALGCLVKDYFPEPVTVSWNSGALTSGVHTFPAVLQSSGLYSLSSVVTVPSSSLGTQTYICNVNHKPSNTKVDKKVEPKSCDKTHTCPPCPAPEAAGGPSVFLFPPKPKDTLMISRTPEVTCVVVDVSHEDPEVKFNWYVDGVEVHNAKTKPREEQYNSTYRVVSVLTVLHQDWLNGKEYKCKVSNKALPAPIEKTISKAKGQPREPQVCTLPPSREEMTKNQVSLSCAVKGFYPSDIAVEWESNGQPENNYKTTPPVLDSDGSFFLVSKLTVDKSRWQQGNVFSCSVMHEALHNHYTQKSLSLSPGK
chain 4: SIVMTQTPLSLSVTPGQPASISCKASQSVSSDVTWYLQKPGQSPQLLIYYVSEHYTGVPDRFSGSGYGTDFTLKISRVEAEDVGVYYCQQHHRFPLTFGQGTKLEIKRTVAAPSVFIFPPSDEQLKSGTASVVCLLNNFYPREAKVQWKVDNALQSGNSQESVTEQDSKDSTYSLSSTLTLSKADYEKHKVYACEVTHQGLSSPVTKSFNRGEC
For the molecule B1, the half-maximal effective concentration (EC50) was 2.18 nM with hTSLP and 17.7 nM with hIL5.

B2: HJ-8 (bispecific antibody)
chain 1: not shown
chain 2: DIQMTQSPSSVSASVGDRVTITCRASQDIANYLSWYQQKPGKSPKLLIYGTSNLEVGVPSRFSGSRSGTDFTLTISSLQPEDFATYYCLQDKEFPRTFGGGTKVEIKRTVASSGAPRFLTRPKASVVSVGKDATLSSQIVGNPFPQVSWEKDKQPVTAGVRFRLAQDGDLYRLKILDLQLSDSGQYVSRARNAHGEAFACLGLQVDAEA
chain 3: EVQLVQSGAEVKKPGSSVKVSCKASGYTFSNYLIEWVRQAPGQGLEWIGVIDPGVGDTNYNENFKGRATLTADKSTSTAYIELSSLRSEDTAVYYCAREDNTGTAFDYWGQGTTVTVSSASTKGPSVFPLAPSSKSTSGGTAALGCLVKDYFPEPVTVSWNSGALTSGVHTFPAVLQSSGLYSLSSVVTVPSSSLGTQTYICNVNHKPSNTKVDKKVEPKSCDKTHTCPPCPAPEAAGGPSVFLFPPKPKDTLMISRTPEVTCVVVDVSHEDPEVKFNWYVDGVEVHNAKTKPREEQYNSTYRVVSVLTVLHQDWLNGKEYKCKVSNKALPAPIEKTISKAKGQPREPQVCTLPPSREEMTKNQVSLSCAVKGFYPSDIAVEWESNGQPENNYKTTPPVLDSDGSFFLVSKLTVDKSRWQQGNVFSCSVMHEALHNHYTQKSLSLSPGK
chain 4: SIVMTQTPLSLSVTPGQPASISCKASQSVSSDVTWYLQKPGQSPQLLIYYVSEHYTGVPDRFSGSGYGTDFTLKISRVEAEDVGVYYCQQHHRFPLTFGQGTKLEIKRTVAAPSVFIFPPSDEQLKSGTASVVCLLNNFYPREAKVQWKVDNALQSGNSQESVTEQDSKDSTYSLSSTLTLSKADYEKHKVYACEVTHQGLSSPVTKSFNRGEC
Consider B2, for which the EC50 in the test with hTSLP is 3.33 nM; with hIL5, 18.7 nM.

As usually defined, the EC50 is the concentration giving half of the maximal effect. Read a high EC50 as lower potency in that assay.
